Positions count from the first letter of the chain named. Where two headings read alike, the source gives them in different places. Blank lines part the entries; values can stand above or below the binder they belong to.
Columns and labels:
[1] = biological target: N-terminally FLAG-tagged mouse Ang2 (HEK293T conditioned medium) (mouse) (UniProt O35608); assay: competition ELISA, periplasmic extract, FLAG-mAng2 on mTie2/Fc
[2] = biological target: FLAG tagged human Ang2 (Alexis Biochemicals) (human) (UniProt O15123); assay: AlphaScreen competition, periplasmic extract, FLAG-hAng2 / biotin-hTie2/Fc
[3] = biological target: FLAG tagged human Ang2 (Alexis Biochemicals) (human) (UniProt O15123); assay: competition ELISA, periplasmic extract, FLAG-hAng2 on hTie2/Fc
[4] = biological target: FLAG tagged human Ang2 (Alexis Biochemicals) (human) (UniProt O15123); assay: competition ELISA, FLAG-hAng2 (0.02 nM) on coated hTie2/Fc
[5] = biological target: FLAG tagged human Ang2 (Alexis Biochemicals) (human) (UniProt O15123); assay: as above; remark: listed apart in the source
[6] = biological target: FLAG-tagged human Ang2 (human) (UniProt O15123); assay: competition ELISA: FLAG-hAng2 binding to coated hTie2-Fc
[7] = biological target: FLAG-tagged recombinant human Ang1 (Alexis Biochemicals) (human) (UniProt Q15389); assay: competition ELISA, periplasmic extract, FLAG-hAng1 on hTie2/Fc
[8] = biological target: FLAG-tagged human Ang2 (human) (UniProt O15123); assay: competition ELISA: FLAG-hAng2 binding to coated hTie2-Fc; remark: listed apart in the source
[9] = biological target: FLAG-tagged recombinant human Ang1 (human) (UniProt Q15389); assay: ratio of IC50s in hAng1/hTie2 and hAng2/hTie2 competition ELISA
Sequence of FLAG-tagged recombinant human Ang1 (human) (Q15389 20-498 limits assumed): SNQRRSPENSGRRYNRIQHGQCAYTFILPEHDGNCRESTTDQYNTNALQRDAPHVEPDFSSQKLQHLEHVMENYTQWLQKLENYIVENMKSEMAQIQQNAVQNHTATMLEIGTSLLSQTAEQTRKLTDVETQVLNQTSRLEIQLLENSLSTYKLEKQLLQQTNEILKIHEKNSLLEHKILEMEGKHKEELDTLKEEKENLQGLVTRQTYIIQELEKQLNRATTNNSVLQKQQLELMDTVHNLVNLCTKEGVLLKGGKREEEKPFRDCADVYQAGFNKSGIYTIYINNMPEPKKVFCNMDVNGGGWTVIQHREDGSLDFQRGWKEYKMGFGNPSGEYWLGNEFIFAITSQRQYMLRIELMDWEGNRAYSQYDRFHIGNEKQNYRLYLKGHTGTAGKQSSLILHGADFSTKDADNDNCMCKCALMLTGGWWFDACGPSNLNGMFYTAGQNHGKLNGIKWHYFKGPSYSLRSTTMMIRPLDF

Sequence of FLAG-tagged recombinant human Ang1 (Alexis Biochemicals) (human) (Q15389 20-498 limits assumed): as above
Sequence of FLAG-tagged human Ang2 (human) (O15123 19-496): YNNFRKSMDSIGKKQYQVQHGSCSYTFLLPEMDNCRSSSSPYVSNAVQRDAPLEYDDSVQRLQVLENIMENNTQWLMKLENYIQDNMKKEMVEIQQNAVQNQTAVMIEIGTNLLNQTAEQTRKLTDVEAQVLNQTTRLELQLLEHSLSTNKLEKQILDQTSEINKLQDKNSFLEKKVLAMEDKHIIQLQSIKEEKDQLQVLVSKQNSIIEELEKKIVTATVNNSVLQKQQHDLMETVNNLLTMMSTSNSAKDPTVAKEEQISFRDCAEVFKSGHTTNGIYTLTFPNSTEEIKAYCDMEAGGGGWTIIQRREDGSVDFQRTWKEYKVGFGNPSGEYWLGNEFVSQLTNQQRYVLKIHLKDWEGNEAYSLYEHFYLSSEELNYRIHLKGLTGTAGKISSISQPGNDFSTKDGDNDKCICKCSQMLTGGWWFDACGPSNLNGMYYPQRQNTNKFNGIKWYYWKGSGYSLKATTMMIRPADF
Sequence of FLAG tagged human Ang2 (Alexis Biochemicals) (human) (O15123 19-496): as above
Sequence of N-terminally FLAG-tagged mouse Ang2 (HEK293T conditioned medium) (mouse) (O35608 19-496 limits assumed): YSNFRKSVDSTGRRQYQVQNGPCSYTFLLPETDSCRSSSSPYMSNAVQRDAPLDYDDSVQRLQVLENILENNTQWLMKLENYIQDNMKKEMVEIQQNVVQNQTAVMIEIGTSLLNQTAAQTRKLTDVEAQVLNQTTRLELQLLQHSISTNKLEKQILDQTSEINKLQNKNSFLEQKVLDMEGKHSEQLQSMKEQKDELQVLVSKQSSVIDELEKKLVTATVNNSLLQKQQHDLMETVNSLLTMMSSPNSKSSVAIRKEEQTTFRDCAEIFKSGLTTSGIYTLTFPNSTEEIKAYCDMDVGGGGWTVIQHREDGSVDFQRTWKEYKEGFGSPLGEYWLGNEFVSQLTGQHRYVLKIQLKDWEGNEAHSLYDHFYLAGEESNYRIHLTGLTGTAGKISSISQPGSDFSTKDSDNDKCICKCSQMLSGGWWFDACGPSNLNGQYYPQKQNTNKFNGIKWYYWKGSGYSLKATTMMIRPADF

B1: VHH 25G04 (VHH, not shown: small tags and cut ends)
VHH: EVQLVESGGGLVQPGGSLRLSCAASGFTFGSYDMSWVRQAPGKGPEWVSAINSRGGSTYYADSVKGRFTISRDNAKNTLYLQMNSLKPEDTAVYYCATDPYSLSYYGYPLYDYWGQGTQVTVSS
- % inh [1]: 9%
- % inh [2]: 90%
- % inh [3]: 87%

B2: VHH 1D01 (VHH, not shown: small tags and cut ends)
VHH: EVQLVESGGGLVQAGGSLRLSCAASGFTFDDYALGWFRQAAGKEREGVSCIRCSDGSTYYADSVKGRFTISSDNAKNTVYLQMNSLKPEDTAVYYCAASIVPRSKLEPYEYDAWGQGTQVTVSS
- IC50 [4]: 6.2 nM
- IC50 [5]: 3.4 nM
- IC50 [6]: 6.6 nM

B3: VHH 25F01 (VHH, not shown: small tags and cut ends)
VHH: EVQLVESGGGLVQAGGSLRLSCAVSGLPFDDYVIGWFRQAPGKEREGVSCISSSDGSTYYADSVKGRFTISSDNAKNTVYLQMNSLKPEDTAAYYCAAGGPRINIATMTCSHDEYEYDYWGQGTQVTVSS
- % inh [2]: 67%
- % inh [7]: 14%
- IC50 [5]: 6.5 nM
- % inh [3]: 85%

B4: VHH 11B07 (VHH, not shown: small tags and cut ends)
VHH: EVQLVESGGGLVQVGDSLRLSCAASGRTFSTYLMVGWFRQAPGKEREFAAGIWSSGDTAYADSVRGRFTISRDNAKNTVYLQMNSLKTEDTAVYYCAGSYDGNYYIPGFYKDWGQGTQVTVSS
- IC50 [4]: 14 nM
- IC50 [5]: 5.4 nM

B6: VHH 14A08 (VHH, not shown: small tags and cut ends)
VHH: EVQLVESGGGLVQAGGSLRLSCASSGFTFDDYAIGWFRQAPGKEREGVSCISSSDGSTYYADSVKGRFTISSDNAKNTVYLQMNSLKPEDTAVYYCAARPPFHSCSEYENDYWGQGTQVTVSS
- % inh [1]: 4%
- % inh [2]: 52%

B7: VHH 24B05 (VHH, not shown: small tags and cut ends)
VHH: EVQLVESGGGLVQPGGSLRLSCAASGFTLDYYAIGWFRQAPGKEWEGVSCISSSDGSTYYADSVKGRFTISRDNAKNTVYLQMNSLKPEDTAVYYCATDSIVCGSYYGMDYWGKGTQVTVSS
- IC50 [4]: 1.1 nM
- % inh [2]: 97%
- IC50 [5]: 1 nM
- % inh [3]: 102%

B8: VHH 12A08 (VHH, not shown: small tags and cut ends)
VHH: EVQLVESGRGLVQAGGSLRLSCAASGSIFSINAMLWYRQAPGKQRELVAAITSGGSTNYADSVKGRFTISRDNAKNTVYLQMNSLKPEDTAVYYCAADSDYSSDYYYWGQGTQVTVSS
- % inh [1]: 2%
- % inh [2]: 98%
- % inh [3]: 0%

B10: VHH 00027 (VHH, not shown: small tags and cut ends)
VHH: EVQLVESGGGLVQAGGSLRLSCAASGFTLDDYAIGWFRQAPGKEREGVSSIRDNDGSTYYADSVKGRFTISSDNDKNTVYLQMNSLKPEDTAVYYCAAVPAGRLRFGEQWYPLYEYDAWGQGTLVTVSS
- IC50 [8]: 0.7 nM
- IC50 [6]: 0.672 nM

B13: VHH 7G08 (VHH, not shown: small tags and cut ends)
VHH: EVQLVESGGGLVQPGGSLRLSCAASGFALDYYAIGWFRQVPGKEREGVSCISSSDGITYYVDSVKGRFTISRDNAKNTVYLQMNSLKPEDTAVYYCATDSGGYIDYDCMGLGYDYWGQGTQVTVSS
- IC50 [4]: 0.04 nM
- IC50 [5]: 0.07 nM

B17: VHH 13A02 (VHH, not shown: small tags and cut ends)
VHH: EVQLVESGGGLVQAGGSLRLSCAASGGTFSSYSMGWFRQAPGKEREFIAAINWNGDSTYYEDSVKGRFTVSRDNAKNTVYLQMNSLKPEDTAVYYCAATGWGRAYEQAYEYDVWGQGTQVTVSS
- IC50 [4]: 23 nM
- % inh [2]: 91%
- IC50 [5]: 4.1 nM
- % inh [3]: 96%

B18: VHH 25D08 (VHH, not shown: small tags and cut ends)
VHH: EVQLVESGGGLVQAGGSLRLSCAASGFTFDDYAIGWFRQAPGKDLEGVSCISSSDGSTYYADSVKGRFTISSDNAKNTVYLQMNSLKPEDTAVYYCAAVNGLGPFSVPVPVYDFWGQGTQVTVSS
- % inh [1]: 6%
- % inh [2]: 78%
- % inh [7]: 10%
- % inh [3]: 94%

Second part, the binder after the results:

- IC50 [4]: 4 nM
- % inh [2]: 55%
- % inh [7]: 17%
- % inh [3]: 112%
B5: VHH 32H10 (VHH, not shown: small tags and cut ends)
VHH: EVQLVESGGGLVQAGGSLRLSCAASGFDFEDYDMGWFRQAPGKEREGVSYISSSDGSTYYTDSVKGRFTISSDNAKNTVYLQMNSLIPEDTAVYYCAARPWTRRVYGSSWLARSLDEYEYDYWGQGTQVTVSS

- IC50 [4]: 1.3 nM
- % inh [2]: 89%
- IC50 [8]: 1.8 nM
- hAng1/hAng2 ratio [9]: > 5680
- % inh [3]: 118%
B9: VHH 28D10 (VHH, not shown: small tags and cut ends)
VHH: B10 VHH with S50C, N54S, L124Q

- IC50 [8]: 1.8 nM
B11: VHH 00055 (VHH, not shown: small tags and cut ends)
VHH: B10 VHH with D55G

- IC50 [8]: 0.7 nM
- IC50 [6]: 0.646 nM
B12: VHH 00042 (VHH, not shown: small tags and cut ends)
VHH: B10 VHH with A14P, D75S, K87R

- IC50 [4]: 0.1 nM
B14: VHH 37A09 (VHH, not shown: small tags and cut ends)
VHH: B13 VHH with V5M, E89G

- IC50 [4]: 0.08 nM
- hAng1/hAng2 IC50 ratio [9]: > 130000
- hAng1/hAng2 ratio [9]: > 130000
- IC50 [6]: 0.077 nM
B15: VHH 37F02 (VHH, not shown: small tags and cut ends)
VHH: B13 VHH with V40A

- % inh [1]: 63%
- % inh [2]: 60%
- % inh [3]: 112%
B16: VHH 29B08 (VHH, not shown: small tags and cut ends)
VHH: EVQLVESGGGVVQAGDSVRLSCAASGPTFRSYTMAWFRQTPGKERDIVAAISSSLGRTYYADSVKGRFQILRDNAKETVWLQMNSLKPEDTAVYICAASRSLNLAYTTKPYDYWGQGTQVTVSS

— patent US20230203146A1
